Reference: US10155020B2, “Compositions and methods for treating hepatitis B” (The Regents of the University of Colorado, a body corporate, priority 2012, dated 2018)
Changes are numbered by the printed parent chain. In names and notes the source's numbering stands. Several values for one entry are separate records, joined by “and”; a condition that tells them apart may be missing. Equal entries are not always repeated.

Tests used:
[1] = tested on: cytosolic Ca^2+ in PLM neurons; test: Cameleon FRET cytosolic calcium imaging in PLM neurons (bzIs17); assay type: in vivo, C. elegans
Description: Calcium imaging and analysis. A C. elegans strain with an integrated Pmec-4YC2.12 cameleon transgene (bzIs17) was used to quantify relative cytosolic calcium levels in PLM neurons by the FRET microscopy.
Calcium Imaging and Analysis in C. elegans. A C. elegans strain with an integrated Pmec-4YC2.12 cameleon transgene (bzIs17) was used to quantify relative cytosolic calcium levels in PLM neurons. Animals at the L1 larval stage were immobilized on a 2% agar pad in a solution containing 0.3 M 2,3-butanedione monoxime and 10 mM HEPES (pH 7.2). PLM neurons were visualized using an Axioplan 2 Nomarski Microscope (Zeiss) equipped with a SensiCam CCD camera (PCO Imaging Kelheim, Germany). […] The FRET ratio was calculated by (FRETPLM−FRETbkgnd)/(CFPPLM−CFPbkgnd), where FRETPLM and CFPPLM are the mean fluorescent intensities in the FRET and CFP channels of the PLM neuron and FRETbkgnd and CFPbkgnd are the mean fluorescent intensities in the FRET and CFP channels of a background region adjacent to the PLM neurons.
A C. elegans strain carrying an integrated transgene (bzIs17) that expresses a cameleon Ca^2+ sensor under the control of the mec-4 gene promoter was used to monitor intracellular Ca^2+ in six touch cells through the fluorescence-resonance energy transfer (FRET) assay.

PLM neurons = test: PLM touch cell killing by HBx in C. elegans; assay type: in vivo
Description: The presence of GFP-positive PLM neurons was scored using a Nomarski microscope. The data are shown in three categories: both PLM missing (black bars), one PLM missing (gray bars) and no PLM missing (white bars). The y axis represents percentage of each category. Percentage numbers under columns indicate the total PLM missing percentage in each experiment. More than 40 animals were scored in each experiment.
C. elegans strains and cell death assays. Animals were grown and maintained using standard protocols. Germline transformation was used to generate transgenic C. elegans strains expressing HBx and other genes. […] PLM killing by HBx was scored as described in Nat Struct Mol Biol., 2008, 15, 1094-1101.
Quantification of PLM Killings by HBx. PLM neurons were scored in L4 larvae in the presence of the integrated transgene, smIs98 or bzIs8, using a Nomarski microscope equipped with epifluorescence.
Chemical Treatment of C. elegans. Worms were treated with chemicals using an oil-base protocol. […] L4 larval stage hermaphrodite animals were placed onto standard NGM plates seeded with OP50. Oil solutions containing the chemicals were spread (0.8-1.0 ml) onto each plate so that the NGM surface was completely covered by oil. Worms lived at the interface of the NGM medium and the oil. F1 progeny was examined for PLM cell death or the FRET ratio in PLMs.

CED-9 (C. elegans) = CED-9 (C. elegans) (UniProt P41958); test: isothermal titration calorimetry; peptaibol TK titrated into CED-9
HBV DNA replication = HBV DNA replication in pHBV-transfected HepG2 cells; assay type: cell-based, hepatitis B virus; conditions: cells transfected with mutant HBV genome HBx(G124L, I127A); 5 μM
Description: Quantification of HBV DNA replication and HBcAg. Southern hybridization analysis and quantitative real-time PCR were used to quantify the amount of HBV replication DNA intermediates isolated from HepG2 cells or from mouse livers. The level of cytoplasmic HBcAg was measured by chemiluminescence using a commercial assay kit.
Southern Blot Analysis. HepG2 cells (3×10 cm plate per sample) transfected with the pHBV replicon (wild-type or mutant) were washed twice with cold phosphate-buffered saline (PBS) and lysed in 750 μl NET buffer (50 mM Tris-HCl pH 7.5, 1 mM EDTA, 100 mM NaCl, 0.5% Nonidet P-40) per 10 cm plate for 1 hour. HepG2 cell lysates were clarified by centrifugation at 12000 g for 30 minutes at 4° C. The supernatant was adjusted to 6 mM CaCl2 and treated with 100 μg/ml of Micrococcal nuclease for 30 minutes at 37° C. The reaction was stopped by addition of EDTA to a final concentration of 25 mM. […]
Quantitative Real-Time PCR Analysis. […] The pHBV plasmid was used as the standard for quantification and serial dilutions from 2×10^8 to 200 IU/ml were prepared. The primer sequences for quantitative PCR were chosen carefully from regions coding for HBV S antigen and Polymerase. […] PCR products were analyzed by fluorescence. […] The measured raw copy number from each reaction was calculated using the CT value of each PCR interpolated against the linear regression of the standard curve. […]

[2] = target: CED-9 pre-incubated with peptaibol TK (C. elegans; Trichoderma pseudokoningii) (UniProt P41958); test: isothermal titration calorimetry; CED-9 pre-incubated with peptaibol TK, titrated with EGL-1
CED-9 [3] = target: T1, CED-9 (Caenorhabditis elegans, UniProt P41958); test: Isothermal titration calorimetry (ITC), titration of CED-9; assay type: binding, C. elegans; conditions: no peptaibol TK
T1 sequence (P41958 1-280): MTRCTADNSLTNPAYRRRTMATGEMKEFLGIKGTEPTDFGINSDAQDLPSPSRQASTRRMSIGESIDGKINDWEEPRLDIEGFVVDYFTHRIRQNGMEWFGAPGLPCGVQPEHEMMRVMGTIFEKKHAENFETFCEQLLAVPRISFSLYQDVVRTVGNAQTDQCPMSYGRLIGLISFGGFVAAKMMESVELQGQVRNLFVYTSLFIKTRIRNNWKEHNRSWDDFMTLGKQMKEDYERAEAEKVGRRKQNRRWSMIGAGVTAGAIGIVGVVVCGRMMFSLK

CED-9 [4] = target: T2, CED-9 (C. elegans, UniProt P41958 1-251); test: isothermal titration calorimetry
T2 sequence (looked up): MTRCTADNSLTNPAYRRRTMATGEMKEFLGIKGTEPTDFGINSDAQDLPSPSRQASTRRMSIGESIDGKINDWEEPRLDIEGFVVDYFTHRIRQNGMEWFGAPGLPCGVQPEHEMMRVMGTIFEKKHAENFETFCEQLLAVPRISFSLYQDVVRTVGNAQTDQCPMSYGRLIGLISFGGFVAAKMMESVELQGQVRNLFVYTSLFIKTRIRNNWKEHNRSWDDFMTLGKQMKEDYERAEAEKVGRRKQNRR

Bcl-2 family proteins = test: cell-based or functional assay
[5] = target: T3, CED-9 (in C. elegans animals) (C. elegans, UniProt P41958 1-280); test: cell-based or functional assay
T3 sequence: T1 sequence (P41958 1-280)

Mcl-1 [6] = target: T4, Mcl-1 (human, UniProt Q07820 1-350); test: co-immunoprecipitation with anti-HBx antibody from pHBV-transfected HepG2 cells, immunoblot
T4 construct: also called anti-apoptotic Bcl-2 family member Mcl-1

[7] = target: T5, CED-9(68-251; G169E)-His6 (C. elegans, UniProt P41958 68-251); test: GST pull-down, immunoblot
T5 construct: range 68-251; also called CED-9(G169E); mutant CED-9(G169E) protein
T5 sequence: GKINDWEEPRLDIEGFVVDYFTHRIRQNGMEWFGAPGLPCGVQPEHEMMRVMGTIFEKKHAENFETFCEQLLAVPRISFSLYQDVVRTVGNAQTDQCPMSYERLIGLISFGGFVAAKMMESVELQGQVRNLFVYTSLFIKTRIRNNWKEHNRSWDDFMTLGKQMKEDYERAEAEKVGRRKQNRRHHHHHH

His6-mBax(1-173) = target: T6, His6-mBax(1-173) (mouse, UniProt Q07813 1-173); test: GST pull-down, immunoblot
T6 construct: range 1-173; also called mouse Bax(1-173)

Mcl-1 [8] = target: T4, Mcl-1; test: co-immunoprecipitation with anti-Flag antibody from HepG2 cells, immunoblot
human Bcl-xL [9] = target: T7, human Bcl-xL (human, UniProt Q07817 1-233); test: as above
T7 construct: also called endogenous Bcl-xL

human Bcl-xL [10] = target: T7, human Bcl-xL; test: co-immunoprecipitation with anti-HBx antibody from pHBV-transfected HepG2 cells, immunoblot

T4 sequence (Q07820 whole entry): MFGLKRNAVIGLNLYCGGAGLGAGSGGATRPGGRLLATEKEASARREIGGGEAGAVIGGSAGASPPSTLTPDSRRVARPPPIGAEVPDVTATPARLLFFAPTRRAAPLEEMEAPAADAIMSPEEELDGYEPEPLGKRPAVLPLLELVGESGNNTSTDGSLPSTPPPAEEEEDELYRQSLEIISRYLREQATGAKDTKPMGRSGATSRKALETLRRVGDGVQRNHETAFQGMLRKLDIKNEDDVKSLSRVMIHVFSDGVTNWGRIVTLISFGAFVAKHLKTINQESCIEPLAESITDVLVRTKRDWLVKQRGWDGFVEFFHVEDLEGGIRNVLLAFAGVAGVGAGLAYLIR
T7 sequence (Q07817 whole entry): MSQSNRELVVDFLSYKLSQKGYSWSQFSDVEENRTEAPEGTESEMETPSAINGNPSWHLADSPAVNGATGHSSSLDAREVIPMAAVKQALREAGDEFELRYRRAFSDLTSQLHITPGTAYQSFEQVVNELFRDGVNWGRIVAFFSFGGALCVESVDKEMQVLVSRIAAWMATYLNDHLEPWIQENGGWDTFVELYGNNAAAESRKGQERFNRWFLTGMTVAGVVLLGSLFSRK
T6 sequence (Q07813 other isoform, or with tags, fused parts or gaps limits assumed): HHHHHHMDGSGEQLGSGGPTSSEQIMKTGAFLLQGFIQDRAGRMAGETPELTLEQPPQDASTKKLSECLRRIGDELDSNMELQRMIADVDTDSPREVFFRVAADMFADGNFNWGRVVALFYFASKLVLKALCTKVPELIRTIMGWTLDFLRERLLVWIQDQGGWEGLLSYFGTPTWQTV

Molecule: cyclosporin A [CsA]
- HBx-induced cytosolic Ca^2+ increase (FRET ratio) ([1]; bzIs17, asp-3(tm4559), smIs451 animals): completely suppressed
- percentage of missing PLM (PLM neurons; smIs98 animals that normally lost 50% of PLM neurons): 15%
- PLM death (PLM neurons; smIs98 animals with loss of ced-3): 4%

Molecule: C/C=C(/C)C(=O)O[C@H]1C(C)=C2[C@H]([C@@H]1OC(=O)CCCCCCC)[C@@](C)(OC(C)=O)C[C@H](OC(=O)CCC)[C@@]1(O)[C@H]2OC(=O)[C@@]1(C)O [thapsigargin]
- FRET ratio in PLM neurons ([1]; bzIs17 animals, vs untreated or vector-treated animals): significantly higher

Molecule: peptaibol TK (peptide)
- Ka (CED-9 (C. elegans)): 42600 M⁻¹

Molecule: C[C@H](CCC(=O)O)C[C@H](C)C[C@H](C)C(=O)/C=C(\O)[C@H](C)C[C@H](C)C/C=C/[C@@H](C)[C@@H](O)[C@@H](C)[C@@H](O)C[C@@H]1CC[C@@](C)([C@H]2CC[C@@](C)([C@@H](C)O)O2)O1 [ionomycin]
- HBV DNA replication (HBV DNA replication): largely rescued

B1: EGL-1 (other, C. elegans, UniProt O61667 16-106, looked up)
chain: MSNVFDVQSSVFYNEKNMFYSSSQDFSSCEDSSQFADDSGFFDDSEISSIGYEIGSKLAAMCDDFDAQMMSYSAHASDRSLFHRLLDFFAF
notes: also called BH3-only protein EGL-1
- Ka [2]: 1.52e+08 M⁻¹
- fold of the binding affinity between CED-9 and EGL-1 without peptaibol TK [2]: 38 fold
- binding affinity of EGL-1 to CED-9 (CED-9 [3]): 4.04e+06 M⁻¹
- Ka (CED-9 [4]): 4.04e+06 M⁻¹

B2: HBx(G124L, I127A), P03165 1-154 (protein)
chain: MAARLCCQLDPARDVLCLRPVGAESRGRPFSGSLGTLSSPSPSAVPTDHGAHLSLRGLPVCAFSSAGPCALRFTSARRMETTVNAHQILPKVLHKRTLGLSAMSTTDLEAYFKDCLFKDWEELLEEARLKVFVLGGCRHKLVCAPAPCNFFTSA
- reduction in HBV DNA replication against the wild-type HBV genome, Q-PCR of viral particles from HepG2 cells (Bcl-2 family proteins): 8 fold and 9 fold
- reduction of replicative DNA intermediates in mouse liver against the wild-type pHBV replicon, southern blot (Bcl-2 family proteins): 2 to 3 fold

B3: HBV x protein (HBx) (other)
chain: B2 chain with L124G, A127I
notes: also called hepatitis B virus X protein
- FRET ratio of cameleon Ca2+ sensor in PLM neurons (cytosolic Ca2+) [5]: 40%
- binding result (Mcl-1 [6]): no binding

B4: GST-HBx (other)
chain: B2 chain with L124G, A127I
notes: also called pGEX-4T-2-HBx
- binding result [7]: no binding
- binding result (His6-mBax(1-173)): no binding

B5: Flag-HBx (other)
chain: B2 chain with L124G, A127I
notes: also called pcDNA3.1-Flag-HBx
- binding result (Mcl-1 [8]): no binding

B6: Flag-HBx(G124L, I127A) (other)
chain: B2 chain
notes: also called pcDNA3.1-Flag-HBx(G124L, I127A)
- binding result (human Bcl-xL [9]): no binding

B7: HBx(G124L, I127A) (other)
chain: B2 chain
notes: also called mutant pHBV
- binding result (human Bcl-xL [10]): no binding
